Values quoted from earlier work as cited in publication PMC8044391.

Molecular target: ICAM-1 (Homo sapiens) (UniProt P05362)
Sequence (P05362 28-480): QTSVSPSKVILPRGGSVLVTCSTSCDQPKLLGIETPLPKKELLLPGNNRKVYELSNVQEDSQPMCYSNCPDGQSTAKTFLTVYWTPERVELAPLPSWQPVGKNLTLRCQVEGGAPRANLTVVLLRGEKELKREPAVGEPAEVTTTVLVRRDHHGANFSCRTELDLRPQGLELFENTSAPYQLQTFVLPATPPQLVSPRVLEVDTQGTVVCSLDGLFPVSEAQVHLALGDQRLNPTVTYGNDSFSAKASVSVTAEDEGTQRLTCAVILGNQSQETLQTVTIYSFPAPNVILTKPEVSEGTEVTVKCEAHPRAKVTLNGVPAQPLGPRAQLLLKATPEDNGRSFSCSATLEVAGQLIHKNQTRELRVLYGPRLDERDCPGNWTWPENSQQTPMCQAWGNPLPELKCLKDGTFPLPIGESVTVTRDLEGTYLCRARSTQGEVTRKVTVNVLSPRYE

Chain of integrin αLβ2 (P20701 26-1090): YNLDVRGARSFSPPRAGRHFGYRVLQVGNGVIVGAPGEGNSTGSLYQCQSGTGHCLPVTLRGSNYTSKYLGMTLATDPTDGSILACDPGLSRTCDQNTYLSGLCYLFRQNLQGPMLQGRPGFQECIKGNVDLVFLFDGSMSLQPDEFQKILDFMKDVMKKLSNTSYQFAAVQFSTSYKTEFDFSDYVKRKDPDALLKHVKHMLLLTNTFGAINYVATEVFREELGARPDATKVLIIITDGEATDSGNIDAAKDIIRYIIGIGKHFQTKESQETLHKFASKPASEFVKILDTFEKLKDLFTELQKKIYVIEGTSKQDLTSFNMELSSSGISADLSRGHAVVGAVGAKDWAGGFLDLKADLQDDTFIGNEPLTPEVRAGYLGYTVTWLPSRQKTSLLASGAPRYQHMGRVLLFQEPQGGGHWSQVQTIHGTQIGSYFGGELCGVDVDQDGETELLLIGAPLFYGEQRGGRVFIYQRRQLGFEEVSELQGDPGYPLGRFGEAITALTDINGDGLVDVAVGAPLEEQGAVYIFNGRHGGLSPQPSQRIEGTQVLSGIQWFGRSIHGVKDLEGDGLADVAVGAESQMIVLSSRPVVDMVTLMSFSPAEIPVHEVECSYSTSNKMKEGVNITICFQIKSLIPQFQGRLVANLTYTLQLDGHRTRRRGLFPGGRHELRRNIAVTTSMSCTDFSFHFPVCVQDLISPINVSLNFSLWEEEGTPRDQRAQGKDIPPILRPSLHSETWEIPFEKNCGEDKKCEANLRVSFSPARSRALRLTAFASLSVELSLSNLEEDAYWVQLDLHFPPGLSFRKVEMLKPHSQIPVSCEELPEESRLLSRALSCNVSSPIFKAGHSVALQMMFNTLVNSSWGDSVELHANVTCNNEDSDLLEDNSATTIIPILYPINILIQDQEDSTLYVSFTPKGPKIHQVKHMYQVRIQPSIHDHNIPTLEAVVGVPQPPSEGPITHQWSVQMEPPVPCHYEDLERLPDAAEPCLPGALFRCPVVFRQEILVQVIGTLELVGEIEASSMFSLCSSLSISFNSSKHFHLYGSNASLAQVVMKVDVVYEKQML
Chain of integrin αLβ2 (P05107 23-700, further chain): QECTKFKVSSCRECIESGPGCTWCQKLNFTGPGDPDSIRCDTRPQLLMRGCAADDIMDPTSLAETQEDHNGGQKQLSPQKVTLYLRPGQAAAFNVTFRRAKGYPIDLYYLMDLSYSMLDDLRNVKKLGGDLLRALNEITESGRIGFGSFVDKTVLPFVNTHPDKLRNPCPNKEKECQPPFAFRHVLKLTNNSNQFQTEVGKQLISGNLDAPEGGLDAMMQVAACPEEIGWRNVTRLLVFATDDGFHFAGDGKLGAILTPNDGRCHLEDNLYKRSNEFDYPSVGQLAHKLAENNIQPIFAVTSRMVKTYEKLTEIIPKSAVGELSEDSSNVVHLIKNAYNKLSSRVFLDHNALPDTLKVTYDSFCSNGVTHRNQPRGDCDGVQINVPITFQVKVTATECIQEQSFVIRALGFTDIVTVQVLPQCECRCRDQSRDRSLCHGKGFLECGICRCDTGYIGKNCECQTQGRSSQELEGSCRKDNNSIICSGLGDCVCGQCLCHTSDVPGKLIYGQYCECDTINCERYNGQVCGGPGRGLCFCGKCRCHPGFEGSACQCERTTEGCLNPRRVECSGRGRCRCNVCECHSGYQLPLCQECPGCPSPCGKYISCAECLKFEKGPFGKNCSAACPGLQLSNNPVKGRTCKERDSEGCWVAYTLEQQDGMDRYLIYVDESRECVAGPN

integrin αLβ2 (from UniProt P20701)
Kd: 26 µM
